From US11945858B2, “Antibodies and antibody fragments against HNAV1.7 channel and their use in pain and cancer indications” (NATIONAL RESEARCH COUNCIL OF CANADA, priority 2018, dated 2024)
Where “and” joins values, the source holds several entries; their conditions need not be identical. Identical values can stand only once.

Legend:
[1] = test system: overlapping antigen-peptides derived from DIE3IR; assay: ELISA of mAbs on overlapping antigen-peptides derived from DIE3IR; format: binding, human; conditions: peptides coated 100-500 ng/well
Procedure: The peptides were custom-synthesized (Biomatik) and tested for antibody binding by ELISA. […] The wells were blocked with 1% BSA in TBS-T for 30 min and then incubated with 1:1000 dilution of anti-hNav1.7 mAb at room temperature (RT) for one hr. Following three TBS-T washes (3×5 min), mAb binding to peptides was detected by incubating with HRP-conjugated anti-mouse Fc antibody for 90 min at RT in TBS-T. The bound antibody was detected with SureBlue™ TMB reagent kit (KPL) by colorimetric measurement at 450 nm according to manufacturer's instructions.
To identify the epitope for mAb 3A8 on DIE3IR, seven overlapping antigen-peptides were generated (FIG. 15A) and an ELISA was performed to determine the binding between these peptides and the various mAb (FIGS. 15C to 15I).

[2] = molecular target: T1, FC5DIE3IR (Homo sapiens, UniProt Q15858); assay: Evaluation of apparent affinity of purified mAbs in ELISA; format: binding; conditions: purified mAb, OD 405 nm
T1 construct: The supernatant was collected and loaded on a 5 ml MabSelect™ SuRe™ column; made in house; host or cells: CHO-3E7 (transient, pTT5 vector), purified from supernatant
Procedure: Screening. Hybridoma supernatants were screened by ELISA to detect specific binders. To this end, 96-well half-area plates (Costar #3690) were coated with 25 μl of FC5DIE3IR or FC5-VHH or FC5-hFc-1X0 at 5 μg/ml in PBS and incubated overnight at 4° C. Microplates were washed 3 times with PBS, blocked with PBS-BSA 1%, and 25 μl of hybridoma supernatants were added and incubated at 37° C., 5% CO2 for 2 hours. Plates were washed 4 times with PBS-Tween 20 0.05% and incubated for one hour at 37° C., 5% CO2 with 25 μl of secondary antibody alkaline phosphatase conjugated F(ab′)2 goat anti-mouse IgG Fc-gamma specific (Jackson Immunoresearch #115-056-071) diluted 1/3000 in blocking buffer. After 4 washes with PBS-Tween 20 0.05%, 25 μl of a 1 mg/ml pNPP substrate solution was added and further incubated for one hour at 37° C. OD405 nm measurements were done using a microplate reader (Spectramax 340 PC, Molecular Devices).
Evaluation of apparent affinity in ELISA. Purified antibodies were assessed for their binding activity by ELISA in a dose-dependent binding curve. […] The data were analyzed with GraphPad Prism software using one-site specific binding-with Hill slope non-linear regression curve fit model to determine Bmax (maximum specific binding) and Kdapp (concentration needed to achieve a half-maximum binding at equilibrium) for each mAb tested. […]

[3] = molecular target: hNav1.7 channels (Homo sapiens, UniProt Q15858, W1161R); assay: Patch-clamp whole-cell recordings in hNav1.7-HEK293 cells; format: cell-based
[4] = test system: CHO-3E7; assay: Cell-ELISA on live CHO-3E7 cells; format: cell-based, Chinese hamster; conditions: hybridoma supernatant, OD450 nm
Procedure: Cell-ELISA. Sterile 96-well plates (Costar #3595) were pre-treated with 50 μl/well of branched polyethyleneimine (PEI, Sigma Cat #408727) at 25 μg/ml in PBS for 30 min at room temperature. PEI was removed and CHO-3E7 or hNAv1.7-CHO (ChanTest cat #CT4003) were seeded at 6×10^5 cells per well in FreeStyle F17 Expression Medium (Gibco Cat #A1383501) and incubated overnight at 37° C., 5% CO2. Microplates were blocked with Starting block (Thermofisher Cat #37538) for 30 min at room temperature, and 50 μl of hybridoma supernatants were added and incubated at 4° C. for 3 h. Plates were washed 5 times with PBS and incubated for one hour at 4° C. with 50 μl of secondary antibody HRP-conjugated F(ab′)2 goat anti-mouse IgG (H+L) (Jackson Immunoresearch #115-036-062) diluted 1/5000 in blocking buffer. After 10 washes with PBS, 50 μl of TMB substrate solution (Pierce Cat #34021) was added and further incubated for 60 min at room temperature. Twenty-five μl/well of stop solution ([…] 1M) was added and OD450 nm measurements were done using a microplate reader (Spectramax 340 PC, Molecular Devices).

[5] = −20 mV, after antibody application (1 μM)

B1: 3A8: anti-hNav1.7 mouse monoclonal antibody, IgG2a, k; heavy chain SEQ ID NO: 12, light chain SEQ ID NO: 18 (antibody, V domains shown)
VH: QVQLQQPGAELVKPGASVKLSCKASGYTFTNYWMHWVKQRPGQGLEWIGEINPSNGRANYNEKFKSKATLTVDKSSSTAYMQLSSLTSEDSAVYYCARSPYGYYDYWGQGTTLTVSSAKTTAPSVYPLAP
VL: DVLMTQTPLSLPVSLGDQASISCRSSQSLLHSNGNTYFHWYLQKPGQSPKLLIYKVSNRFFGVPDRFSGSGSGTDFTLKISRVEAEDLGVYFCSQITHVPLTFGAGTKLELKRADAAPTVSIFPPSS
modifications: Heavy chain of the 3A8 antibody without leader sequence; Light chain of the 3A8 antibody without leader sequence
Peptide in which the binding motif resides / that is bound [1]: pep #2a
Bmax (maximum specific binding) [2]: 3.2
Voltage-dependence of activation (shift V1/2 activation) ([3]; 1 μM): −6.0±1.0 mV and −6.0 mV
Voltage-dependence of the steady-state fast inactivation (shift V1/2 inactivation) ([3]; 1 μM): −7.1±1.7 mV and −7.1 mV
Reduction of the hNav1.7 current in the time course ([3]; 1 μM, single time-course recording (FIG. 6B)): approx. 13%
Onset time of the effect (exponential fit of the current decay, T) ([3]; 1 μM, single time-course recording of the figure): 176 s
Effect on hNav1.7 currents (in words) ([3]; example recordings, 1-3 μM): reduced the hNav1.7 currents in a dose dependent manner
Fast inactivation (time constant) [3, 5]: 0.72 ± 0.08 ms and 0.72 ms
Time-to-peak [3, 5]: 0.88 ± 0.07 ms and 0.88 ms
ELISA on live cells (duplicates) CHO-3E7 ([4]; duplicate 1): −0.027
ELISA on live cells (duplicates) CHO-3E7 ([4]; duplicate 2): −0.018
